Data on eleven molecules can be found in patent US20230235012A1 (ALPINE IMMUNE SCIENCES, published 2023).

The target of assay [1] is T1, human CD28, full-length, expressed on transfected Expi293 cells (human, UniProt P10747 19-220).
T1 construct: whole, on cells
Kind of assay: flow cytometry, 100 nM, Expi293 cells with human CD28.

In assay [2] the target is T2, human CTLA-4, full-length, expressed on transfected Expi293 cells (human, UniProt P16410 36-223).
T2 construct: whole, on cells
Kind of assay: flow cytometry, 100 nM, Expi293 cells with human CTLA-4.

For assay [3], the target named is T3, human ICOS, full-length, expressed on transfected Expi293 cells (human, UniProt Q9Y6W8 21-199).
T3 construct: whole, on cells
T3 sequence (looked up): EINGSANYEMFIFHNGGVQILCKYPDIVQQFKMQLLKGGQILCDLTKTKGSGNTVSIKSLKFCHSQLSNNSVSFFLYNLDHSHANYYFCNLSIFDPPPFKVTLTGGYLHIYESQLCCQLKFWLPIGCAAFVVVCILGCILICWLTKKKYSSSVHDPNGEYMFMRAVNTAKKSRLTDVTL
As to the kind of experiment: flow cytometry, 100 nM, Expi293 cells with human ICOS.

T2 sequence (P16410 36-223): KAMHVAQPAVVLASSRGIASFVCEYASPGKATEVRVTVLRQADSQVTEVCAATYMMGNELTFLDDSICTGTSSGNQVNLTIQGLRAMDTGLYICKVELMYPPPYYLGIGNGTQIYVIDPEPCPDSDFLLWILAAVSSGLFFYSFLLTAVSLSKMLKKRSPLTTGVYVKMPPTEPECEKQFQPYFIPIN

B1: wild-type ICOSL IgV-Fc fusion (Fc fusion)
chain: DTQEKEVRAMVGSDVELSCACPEGSRFDLNDVYVYWQTSESKTVVTYHIPQNSSLENVDSRYRNRALMSPAGMLRGDFSLRLFNVTPQDEQKFHCLVLSQSLGFQEVLSVEVTLHVAANFSVGSGGGGSEPKSSDKTHTCPPCPAPEAEGAPSVFLFPPKPKDTLMISRTPEVTCVVVDVSHEDPEVKFNWYVDGVEVHNAKTKPREEQYNSTYRVVSVLTVLHQDWLNGKEYKCKVSNKALPAPIEKTISKAKGQPREPQVYTLPPSREEMTKNQVSLTCLVKGFYPSDIAVEWESNGQPENNYKTTPPVLDSDGSFFLYSKLTVDKSRWQQGNVFSCSVMHEALHNHYTQKSLSLSPG
notes: also called WT ICOSL
For B1, the MFI in assay [1] amounted to 22300 MFI; in assay [2], 330000 MFI; in assay [3] it was 212000 MFI. In addition, the “MFI ratio to WT (ΔWT)” value in assay [1], in assay [2] and in assay [3] was 1 fold throughout.

B2: variant ICOSL IgV-Fc fusion N52K/N57Y/Q100R (Fc fusion)
chain: DTQEKEVRAMVGSDVELSCACPEGSRFDLNDVYVYWQTSESKTVVTYHIPQKSSLEYVDSRYRNRALMSPAGMLRGDFSLRLFNVTPQDEQKFHCLVLSRSLGFQEVLSVEVTLHVAANFSVGSGGGGSEPKSSDKTHTCPPCPAPEAEGAPSVFLFPPKPKDTLMISRTPEVTCVVVDVSHEDPEVKFNWYVDGVEVHNAKTKPREEQYNSTYRVVSVLTVLHQDWLNGKEYKCKVSNKALPAPIEKTISKAKGQPREPQVYTLPPSREEMTKNQVSLTCLVKGFYPSDIAVEWESNGQPENNYKTTPPVLDSDGSFFLYSKLTVDKSRWQQGNVFSCSVMHEALHNHYTQKSLSLSPG
For the molecule B2, the MFI was 141000 MFI in assay [1], 233000 MFI in assay [2] and 199000 MFI in assay [3]. Also, the “MFI ratio to WT (ΔWT)” value stood at 6.3 fold in assay [1], 0.71 fold in assay [2] and 0.94 fold in assay [3].

B3: variant ICOSL IgV-Fc fusion N52V/N57L/Q100A (Fc fusion)
chain: DTQEKEVRAMVGSDVELSCACPEGSRFDLNDVYVYWQTSESKTVVTYHIPQVSSLELVDSRYRNRALMSPAGMLRGDFSLRLFNVTPQDEQKFHCLVLSASLGFQEVLSVEVTLHVAANFSVGSGGGGSEPKSSDKTHTCPPCPAPEAEGAPSVFLFPPKPKDTLMISRTPEVTCVVVDVSHEDPEVKFNWYVDGVEVHNAKTKPREEQYNSTYRVVSVLTVLHQDWLNGKEYKCKVSNKALPAPIEKTISKAKGQPREPQVYTLPPSREEMTKNQVSLTCLVKGFYPSDIAVEWESNGQPENNYKTTPPVLDSDGSFFLYSKLTVDKSRWQQGNVFSCSVMHEALHNHYTQKSLSLSPG
With B3, the results for the MFI in assay [1] and in assay [2] were 132000 MFI and 252000 MFI, respectively.

B4: variant ICOSL IgV-Fc fusion N52G/N57V (Fc fusion)
chain: DTQEKEVRAMVGSDVELSCACPEGSRFDLNDVYVYWQTSESKTVVTYHIPQGSSLEVVDSRYRNRALMSPAGMLRGDFSLRLFNVTPQDEQKFHCLVLSQSLGFQEVLSVEVTLHVAANFSVGSGGGGSEPKSSDKTHTCPPCPAPEAEGAPSVFLFPPKPKDTLMISRTPEVTCVVVDVSHEDPEVKFNWYVDGVEVHNAKTKPREEQYNSTYRVVSVLTVLHQDWLNGKEYKCKVSNKALPAPIEKTISKAKGQPREPQVYTLPPSREEMTKNQVSLTCLVKGFYPSDIAVEWESNGQPENNYKTTPPVLDSDGSFFLYSKLTVDKSRWQQGNVFSCSVMHEALHNHYTQKSLSLSPG
Turning to B4, the MFI was 69100 MFI in assay [1], 52500 MFI in assay [2] and 332000 MFI in assay [3]. Further, the “MFI ratio to WT (ΔWT)” value in assay [1] came to 3.1 fold; in assay [2], 0.16 fold; in assay [3] it was 1.57 fold.

B5: variant ICOSL IgV-Fc fusion N52G/N57V/Q100G (Fc fusion)
chain: DTQEKEVRAMVGSDVELSCACPEGSRFDLNDVYVYWQTSESKTVVTYHIPQGSSLEVVDSRYRNRALMSPAGMLRGDFSLRLFNVTPQDEQKFHCLVLSGSLGFQEVLSVEVTLHVAANFSVGSGGGGSEPKSSDKTHTCPPCPAPEAEGAPSVFLFPPKPKDTLMISRTPEVTCVVVDVSHEDPEVKFNWYVDGVEVHNAKTKPREEQYNSTYRVVSVLTVLHQDWLNGKEYKCKVSNKALPAPIEKTISKAKGQPREPQVYTLPPSREEMTKNQVSLTCLVKGFYPSDIAVEWESNGQPENNYKTTPPVLDSDGSFFLYSKLTVDKSRWQQGNVFSCSVMHEALHNHYTQKSLSLSPG
In the case of B5, the MFI in assay [1] came out at 23700 MFI; in assay [2], 14700 MFI; in assay [3], 260000 MFI. Moreover, the “MFI ratio to WT (ΔWT)” value in assay [1] is 1.1 fold; in assay [2], 0.04 fold; in assay [3], 1.23 fold.

B6: variant ICOSL IgV-Fc fusion N52A/N57F/Q100S (Fc fusion)
chain: DTQEKEVRAMVGSDVELSCACPEGSRFDLNDVYVYWQTSESKTVVTYHIPQASSLEFVDSRYRNRALMSPAGMLRGDFSLRLFNVTPQDEQKFHCLVLSSSLGFQEVLSVEVTLHVAANFSVGSGGGGSEPKSSDKTHTCPPCPAPEAEGAPSVFLFPPKPKDTLMISRTPEVTCVVVDVSHEDPEVKFNWYVDGVEVHNAKTKPREEQYNSTYRVVSVLTVLHQDWLNGKEYKCKVSNKALPAPIEKTISKAKGQPREPQVYTLPPSREEMTKNQVSLTCLVKGFYPSDIAVEWESNGQPENNYKTTPPVLDSDGSFFLYSKLTVDKSRWQQGNVFSCSVMHEALHNHYTQKSLSLSPG
In the case of B6, the MFI in assay [1] was 157000 MFI; in assay [2], 255000 MFI; in assay [3], 242000 MFI. The figures for the “MFI ratio to WT (ΔWT)” value in assay [1], in assay [2] and in assay [3] were 7 fold, 0.77 fold and 1.14 fold, respectively.

B7: variant ICOSL IgV-Fc fusion N52H/N57Y/Q100K (Fc fusion)
chain: DTQEKEVRAMVGSDVELSCACPEGSRFDLNDVYVYWQTSESKTVVTYHIPQHSSLEYVDSRYRNRALMSPAGMLRGDFSLRLFNVTPQDEQKFHCLVLSKSLGFQEVLSVEVTLHVAANFSVGSGGGGSEPKSSDKTHTCPPCPAPEAEGAPSVFLFPPKPKDTLMISRTPEVTCVVVDVSHEDPEVKFNWYVDGVEVHNAKTKPREEQYNSTYRVVSVLTVLHQDWLNGKEYKCKVSNKALPAPIEKTISKAKGQPREPQVYTLPPSREEMTKNQVSLTCLVKGFYPSDIAVEWESNGQPENNYKTTPPVLDSDGSFFLYSKLTVDKSRWQQGNVFSCSVMHEALHNHYTQKSLSLSPG
With B7, the MFI is 142000 MFI in assay [1] and 214000 MFI in assay [3].

B8: variant ICOSL IgV-Fc fusion N52A/N57Y/Q100A (Fc fusion)
chain: DTQEKEVRAMVGSDVELSCACPEGSRFDLNDVYVYWQTSESKTVVTYHIPQASSLEYVDSRYRNRALMSPAGMLRGDFSLRLFNVTPQDEQKFHCLVLSASLGFQEVLSVEVTLHVAANFSVGSGGGGSEPKSSDKTHTCPPCPAPEAEGAPSVFLFPPKPKDTLMISRTPEVTCVVVDVSHEDPEVKFNWYVDGVEVHNAKTKPREEQYNSTYRVVSVLTVLHQDWLNGKEYKCKVSNKALPAPIEKTISKAKGQPREPQVYTLPPSREEMTKNQVSLTCLVKGFYPSDIAVEWESNGQPENNYKTTPPVLDSDGSFFLYSKLTVDKSRWQQGNVFSCSVMHEALHNHYTQKSLSLSPG
Regarding B8, the MFI in assay [1] turned out to be 147000 MFI; in assay [2] it was 320000 MFI; in assay [3] it was 261000 MFI. Besides, the entries for the “MFI ratio to WT (ΔWT)” value in assay [1], in assay [2] and in assay [3] were 6.6 fold, 0.97 fold and 1.23 fold, respectively.

B9: variant ICOSL IgV-Fc fusion N52L/N57H/Q100R (Fc fusion)
chain: DTQEKEVRAMVGSDVELSCACPEGSRFDLNDVYVYWQTSESKTVVTYHIPQLSSLEHVDSRYRNRALMSPAGMLRGDFSLRLFNVTPQDEQKFHCLVLSRSLGFQEVLSVEVTLHVAANFSVGSGGGGSEPKSSDKTHTCPPCPAPEAEGAPSVFLFPPKPKDTLMISRTPEVTCVVVDVSHEDPEVKFNWYVDGVEVHNAKTKPREEQYNSTYRVVSVLTVLHQDWLNGKEYKCKVSNKALPAPIEKTISKAKGQPREPQVYTLPPSREEMTKNQVSLTCLVKGFYPSDIAVEWESNGQPENNYKTTPPVLDSDGSFFLYSKLTVDKSRWQQGNVFSCSVMHEALHNHYTQKSLSLSPG
Regarding B9, the results for the MFI in assay [1], in assay [2] and in assay [3] were 141000 MFI, 353000 MFI and 250000 MFI, respectively. In addition, the “MFI ratio to WT (ΔWT)” value is 6.3 fold in assay [1], 1.07 fold in assay [2] and 1.18 fold in assay [3].

B10: variant ICOSL IgV-Fc fusion N52G/Q100A (Fc fusion)
chain: DTQEKEVRAMVGSDVELSCACPEGSRFDLNDVYVYWQTSESKTVVTYHIPQGSSLENVDSRYRNRALMSPAGMLRGDFSLRLFNVTPQDEQKFHCLVLSASLGFQEVLSVEVTLHVAANFSVGSGGGGSEPKSSDKTHTCPPCPAPEAEGAPSVFLFPPKPKDTLMISRTPEVTCVVVDVSHEDPEVKFNWYVDGVEVHNAKTKPREEQYNSTYRVVSVLTVLHQDWLNGKEYKCKVSNKALPAPIEKTISKAKGQPREPQVYTLPPSREEMTKNQVSLTCLVKGFYPSDIAVEWESNGQPENNYKTTPPVLDSDGSFFLYSKLTVDKSRWQQGNVFSCSVMHEALHNHYTQKSLSLSPG
In the case of B10, the MFI in assay [1] amounted to 98700 MFI; in assay [3], 303000 MFI.

B11: variant ICOSL IgV-Fc fusion N52C/N57E/Q100S (Fc fusion)
chain: DTQEKEVRAMVGSDVELSCACPEGSRFDLNDVYVYWQTSESKTVVTYHIPQCSSLEEVDSRYRNRALMSPAGMLRGDFSLRLFNVTPQDEQKFHCLVLSSSLGFQEVLSVEVTLHVAANFSVGSGGGGSEPKSSDKTHTCPPCPAPEAEGAPSVFLFPPKPKDTLMISRTPEVTCVVVDVSHEDPEVKFNWYVDGVEVHNAKTKPREEQYNSTYRVVSVLTVLHQDWLNGKEYKCKVSNKALPAPIEKTISKAKGQPREPQVYTLPPSREEMTKNQVSLTCLVKGFYPSDIAVEWESNGQPENNYKTTPPVLDSDGSFFLYSKLTVDKSRWQQGNVFSCSVMHEALHNHYTQKSLSLSPG
With B11, the MFI is 13400 MFI in assay [1], 10600 MFI in assay [2] and 125000 MFI in assay [3]. Further, the “MFI ratio to WT (ΔWT)” value in assay [1] amounted to 0.6 fold; in assay [2], 0.03 fold; in assay [3] it was 0.59 fold.
